# Results taken from paper PMC10504324, “A microprotein N1DARP encoded by LINC00261 promotes Notch1 intracellular domain (N1ICD) degradation via disrupting USP10-N1ICD interaction to inhibit chemoresistance in Notch1-hyperactivated pancreatic cancer” (Cell Discovery, 2023).
# Values joined by “and” are separate entries in the source; they are usually repeats but may differ in a detail not shown here. Identical values can stand only once. Bridge positions count the residues as written; N and C are the ends. Square brackets hold non-standard residues; d marks the D form. Ends that are not written are not given here. S5 = C=CCCC[C@](C)(N)C(=O)O
# B1: mAH2, AH2 of N1DARP with Glu32 substituted by Gln32 (peptide)
# peptide: YAKRIFYQLLSKQL
# notes: N1DARP (41 aa, encoded by LINC00261) residues 20-33 with E32Q; also called modified AH2; substituted AH2; source: synthetic peptide (Chinese Peptide, Inc., Hangzhou; > 98% purity)
# B2: mAH2-8, alanine mutant of mAH2 (peptide)
# peptide: YAKRIFYALLSKQL
# notes: N1DARP residues 20-33 with E32Q and position 8 of the peptide (Q27) to Ala; source: synthetic peptide (Chinese Peptide, Inc., Hangzhou; > 98% purity)
# B3: mAH2-14, alanine mutant of mAH2 (Leu33 to Ala) (peptide)
# peptide: YAKRIFYQLLSKQA
# notes: N1DARP residues 20-33 with E32Q and position 14 of the peptide (Leu33) to Ala; source: synthetic peptide (Chinese Peptide, Inc., Hangzhou; > 98% purity)
# B4: mAH2-12, alanine mutant of mAH2 (peptide)
# peptide: YAKRIFYQLLSAQL
# notes: N1DARP residues 20-33 with E32Q and position 12 of the peptide (K31) to Ala; source: synthetic peptide (Chinese Peptide, Inc., Hangzhou; > 98% purity)
# B5: mAH2-13, alanine mutant of mAH2 (peptide)
# peptide: YAKRIFYQLLSKAL
# notes: N1DARP residues 20-33 with position 13 of the peptide (residue 32: Glu in N1DARP, Gln in mAH2) to Ala; source: synthetic peptide (Chinese Peptide, Inc., Hangzhou; > 98% purity)
# B6: AH2, alpha-helical peptide 2 of N1DARP (peptide)
# peptide: YAKRIFYQLLSKEL
# notes: N1DARP, 41-aa microprotein encoded by LINC00261 (ORF12); source: synthetic peptide (Chinese Peptide, Inc., Hangzhou; > 98% purity); 'purified AH2 peptide'
# B7: mAH2-11, alanine mutant of mAH2 (peptide)
# peptide: YAKRIFYQLLAKQL
# notes: N1DARP residues 20-33 with E32Q and position 11 of the peptide (S30) to Ala; source: synthetic peptide (Chinese Peptide, Inc., Hangzhou; > 98% purity)
# B8: mAH2-9, alanine mutant of mAH2 (Leu28 to Ala) (peptide)
# peptide: YAKRIFYQALSKQL
# notes: N1DARP residues 20-33 with E32Q and position 9 of the peptide (Leu28) to Ala; source: synthetic peptide (Chinese Peptide, Inc., Hangzhou; > 98% purity)
# B9: mAH2-10, alanine mutant of mAH2 (peptide)
# peptide: YAKRIFYQLASKQL
# notes: N1DARP residues 20-33 with E32Q and position 10 of the peptide (L29) to Ala; source: synthetic peptide (Chinese Peptide, Inc., Hangzhou; > 98% purity)
# B10: mAH2-6, alanine mutant of mAH2 (peptide)
# peptide: YAKRIAYQLLSKQL
# notes: N1DARP residues 20-33 with E32Q and position 6 of the peptide (F25) to Ala; source: synthetic peptide (Chinese Peptide, Inc., Hangzhou; > 98% purity)
# B11: mAH2-3, alanine mutant of mAH2 (peptide)
# peptide: YAARIFYQLLSKQL
# notes: N1DARP residues 20-33 with E32Q and position 3 of the peptide (K22) to Ala; source: synthetic peptide (Chinese Peptide, Inc., Hangzhou; > 98% purity)
# B12: mAH2-4, alanine mutant of mAH2 (peptide)
# peptide: YAKAIFYQLLSKQL
# notes: N1DARP residues 20-33 with E32Q and position 4 of the peptide (R23) to Ala; source: synthetic peptide (Chinese Peptide, Inc., Hangzhou; > 98% purity)
# B13: mAH2-1, alanine mutant of mAH2 (peptide)
# peptide: AAKRIFYQLLSKQL
# notes: N1DARP residues 20-33 with E32Q and position 1 of the peptide (Y20) to Ala; source: synthetic peptide (Chinese Peptide, Inc., Hangzhou; > 98% purity)
# B14: mAH2-5, alanine mutant of mAH2 (peptide)
# peptide: YAKRAFYQLLSKQL
# notes: N1DARP residues 20-33 with E32Q and position 5 of the peptide (I24) to Ala; source: synthetic peptide (Chinese Peptide, Inc., Hangzhou; > 98% purity)
# B15: AH1, alpha-helical peptide 1 of N1DARP (peptide)
# peptide: LLEKKRQY
# notes: N1DARP, 41-aa microprotein encoded by LINC00261 (ORF12); source: synthetic peptide (Chinese Peptide, Inc., Hangzhou; > 98% purity)
# Assays:
# Capan1 = test: IC50 assay, chemosensitivity to GEM; format: cell-based; details: Homo sapiens, CAPAN-1; Capan1, Vector; Fig. 5j
# [1] = test system: metastatic pancreatic cancers; details: cited from earlier work; for remission in clinical studies: γ-secretase inhibitors, metastatic pancreatic cancers
# Description: The Notch pathway is active in a broad spectrum of human cancers, including breast, colorectal, lung, prostate, glioblastoma, and pancreatic cancer. Notch signaling is positively associated with pancreatic tumor initiation, progression, and drug resistance in both cell lines and genetic mutant mouse models[7],[8]. In preclinical models, pharmacological inhibition of Notch signaling by small molecules designed to affect HES1 transcriptional function (JI051 and JI130)[9] and natural agents targeting the Notch pathway, such as curcumin, genistein, quercetin, and sulforaphane, slowed tumor prol ...
# [2] = biological target: AH2, alpha-helical peptide 2 of N1DARP (human); test: SPR; BIAcore T200 (GE Healthcare); dissociation constant calculated with BIA-evaluation software; which partner was immobilised is not stated
# ANK domain of N1ICD = ANK domain of N1ICD (Homo sapiens, UniProt P46531); test: SPR analysis, affinity for ANK domain; format: binding; details: mAH2 compared with AH2, Fig. S8E
# Experimental: The binding kinetics between N1DARP or SAH-mAH2-5 and the indicated peptides were analyzed using a SPR assay with a BIAcore T200 instrument (GE Healthcare, Pittsburgh, PA, USA). The dissociation constant was calculated using BIA-evaluation software.
# 309 was determined using reversed phase HPLC with electrospray ionization mass spectrometric detection.
# 311 Supplementary Note S1. Generation and modification of N1DARP-derived stapled peptide SAH-
# 313 To evaluate the therapeutic potential of disrupting the N1ICD-USP10 interaction with N1DARP and
# 314 define a more druggable target, we simulated the tertiary structure of N1DARP using I-TASSAR, a
# 315 hierarchical server for protein structure prediction4, and identified two α-helical peptides (AH1 and
# 316 AH2) (Fig. S8A, left panel).
# 318 we constructed and purified six subdomains with α-helix secondary structure of ANK, designated from
# 320 S8B-S8D). To optimize the physicochemical properties of AH2, we first checked the amino acid
# 322 cancer cells to AH2; therefore, we tried amino acid substitution of Glu32 by Gln32. SPR analysis
# 324 mAH2 (Fig. S8E). Next, to identify the indispensable amino acids mediating mAH2 and ANK
# 325 interactions, we substituted each amino acid of mAH2 with Ala, followed by SPR analysis. The results
# 328 i + 4, or i + 7) and denoted them as stapled α-helices (SAHs). […]
# [3] = biological target: N1ICD (wild type; source not stated) (UniProt P46531); test: co-IP followed by western blotting (band intensity); details: HEK293T, IgG control 0.00
# [4] = biological target: T1, ANK domain of Notch1 intracellular domain (N1ICD-ANK) (UniProt P46531 1927-2122); test: SPR; BIAcore T200 (GE Healthcare); dissociation constant calculated with BIA-evaluation software; which partner was immobilised is not stated; details: both partners purified
# T1 construct: Notch1, ankyrin repeat (ANK) domain of the intracellular domain; the numbers fit human NOTCH1 (2555 aa); also called ANK repeat
# [5] = biological target: T2, ANK domain of Notch3 intracellular domain (N3ICD-ANK) (UniProt Q9UM47 1838-2000); test: as above; details: both partners purified
# T2 construct: Notch3, ANK domain of the intracellular domain; position 1838-2000, length 163 aa printed
# T2 sequence (looked up): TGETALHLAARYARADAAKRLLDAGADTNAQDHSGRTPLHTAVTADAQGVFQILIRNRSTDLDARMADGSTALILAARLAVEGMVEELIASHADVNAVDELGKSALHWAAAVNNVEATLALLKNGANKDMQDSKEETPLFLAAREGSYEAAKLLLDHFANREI
# [6] = biological target: T3, ANK domain of Notch4 intracellular domain (N4ICD-ANK) (UniProt Q99466 1633-1798); test: as above; details: both partners purified
# T3 construct: Notch4, ANK domain of the intracellular domain; position 1633-1798, length 166 aa printed
# T3 sequence (looked up): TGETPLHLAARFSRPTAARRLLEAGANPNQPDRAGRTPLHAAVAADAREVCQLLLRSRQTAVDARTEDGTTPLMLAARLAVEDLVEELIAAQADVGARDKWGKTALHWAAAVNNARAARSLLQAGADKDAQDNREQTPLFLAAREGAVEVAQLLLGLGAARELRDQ
# [7] = biological target: T4, ANK domain of Notch2 intracellular domain (N2ICD-ANK) (UniProt Q04721 1827-2038); test: as above; details: both partners purified
# T4 construct: Notch2, ANK domain of the intracellular domain; position 1827-2038, length 212 aa printed
# T4 sequence (looked up): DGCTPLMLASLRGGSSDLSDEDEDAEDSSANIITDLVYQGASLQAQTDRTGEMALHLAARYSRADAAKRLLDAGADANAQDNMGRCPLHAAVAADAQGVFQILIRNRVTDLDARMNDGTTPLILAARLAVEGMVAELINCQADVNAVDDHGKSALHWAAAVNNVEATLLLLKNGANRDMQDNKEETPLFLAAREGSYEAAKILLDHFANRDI
# [8] = IP: Anti-Flag (N1DARP-Flag), blot: Myc
# [9] = IP: Anti-Myc (N1ICD-Myc), blot: Flag
molecule,measurement,setting,value
"Nc1ccn([C@@H]2O[C@H](CO)[C@@H](O)C2(F)F)c(=O)n1 [GEM, gemcitabine]",IC50,Capan1,44 nM
O=C(O)CC[C@H]1CC[C@@](c2cc(F)ccc2F)(S(=O)(=O)c2ccc(Cl)cc2)CC1 [MK-0752],remission in clinical studies,[1],no significant remission was observed
CCC[C@H](N[C@H]1CCc2cc(F)cc(F)c2C1)C(=O)Nc1cn(C(C)(C)CNCC(C)(C)C)cn1 [PF-03084014],remission in clinical studies,[1],no significant remission was observed
CC(C)(C(=O)NCC(F)(F)C(F)(F)F)C(=O)N[C@@H]1C(=O)Nc2ccccc2-c2ccccc21 [RO4929097],remission in clinical studies,[1],no significant remission was observed
"ANK1, subdomain of the ANK domain of N1ICD (from UniProt P46531 19-2555) (domain or fragment)",Kd,[2],43.4 nM
"ANK2, subdomain of the ANK domain of N1ICD (from UniProt P46531 19-2555) (domain or fragment)",Kd,[2],23300 nM
"ANK3, subdomain of the ANK domain of N1ICD (from UniProt P46531 19-2555) (domain or fragment)",Kd,[2],85800 nM
"ANK4, subdomain of the ANK domain of N1ICD (from UniProt P46531 19-2555) (domain or fragment)",Kd,[2],66100 nM
"ANK5, subdomain of the ANK domain of N1ICD (from UniProt P46531 19-2555) (domain or fragment)",Kd,[2],42800 nM
"ANK6, subdomain of the ANK domain of N1ICD (from UniProt P46531 19-2555) (domain or fragment)",Kd,[2],64200 nM
mAH2: AH2 with amino acid substitution of Glu32 by Gln32 (YAKRIFYQLLSKQL),affinity for ANK after substitution of Glu32 by Gln32,ANK domain of N1ICD,comparable affinity
tarextumab: fully human IgG2 antibody that inhibits Notch2/3 receptors,"remission and tolerance, phase II study","[1]; metastatic pancreatic cancer, in combination with gemcitabine (GEM) and paclitaxel",remarkable remission and tolerance
wild-type N1DARP (overexpressed) D41A,response,[3]; [8],0.87
same,response,[3]; [9],1.07
wild-type N1DARP (overexpressed) G12A,response,[3]; [8],0.91
same,response,[3]; [9],0.93
wild-type N1DARP (overexpressed) L28A,response,[3]; [8],1.01
same,response,[3]; [9],0.87
wild-type N1DARP (overexpressed) Y20A,response,[3]; [8],0.26
same,response,[3]; [9],0.35
wild-type N1DARP (overexpressed) Y20A; Y34A,response,[3]; [8],0
same,response,[3]; [9],0
wild-type N1DARP (overexpressed) Y34A,response,[3]; [8],0.43
same,response,[3]; [9],0.31
"YAKRI[S5]YQL[S5]SKQL (staple 6-10) [SAH-mAH2-3, stapled alpha-helix of mAH2]",Kd,[4],10.5 nM
"YAKRI[S5]YQLLSK[S5]L (staple 6-13) [SAH-mAH2-5, N1DARP-derived stapled peptide]",Kd,[5],69 nM
same,Kd,[6],35.2 nM
same,Kd,[7],539 nM
same,Kd,[4],0.898 nM
B1,Kd,[4],60.4 nM and 45.2 nM
B2,Kd,[4],87.4 nM
B3,Kd,[4],5960 nM
B4,Kd,[4],78.2 nM
B5,Kd,[4],99 nM
B6,Kd,[4],60.4 nM
B7,Kd,[4],83.9 nM
B8,Kd,[4],288 nM
B9,Kd,[4],55.5 nM
B10,Kd,[4],63.6 nM
B11,Kd,[4],51.1 nM
B12,Kd,[4],74.5 nM
B13,Kd,[4],96.1 nM
B14,Kd,[4],57.5 nM
"[S5]AKRIFY[S5]LLSKQL (staple 1-8) [SAH-mAH2-4, stapled alpha-helix of mAH2]",Kd,[4],25.8 nM
"[S5]AKR[S5]FYQLLSKQL (staple 1-5) [SAH-mAH2-1, stapled alpha-helix of mAH2]",Kd,[4],134 nM
"Y[S5]KRI[S5]YQLLSKQL (staple 2-6) [SAH-mAH2-2, stapled alpha-helix of mAH2]",Kd,[4],97.7 nM
B15,Kd,[4],213 nM
